Data as given in publication PMC3220277 (Biochemistry, 2011).

Columns and labels:
Assay in all cases: fluorescence polarisation
C81A S100A4 = C81A S100A4 (human, UniProt P26447 1-101, C81A)
C3R/C86S S100A4 = C3R/C86S S100A4 (human, UniProt P26447 1-101, C3R | C86S)
wild-type human S100A4 = wild-type human S100A4 (human, UniProt P26447 1-101)
C81S S100A4 = C81S S100A4 (human, UniProt P26447 1-101, C81S)
Chain of C81S S100A4 (P26447 whole entry C81S, one chain of several): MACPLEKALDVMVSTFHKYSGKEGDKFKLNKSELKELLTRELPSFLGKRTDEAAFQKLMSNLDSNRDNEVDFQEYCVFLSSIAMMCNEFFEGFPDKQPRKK

Chain of C81A S100A4 (P26447 whole entry C81A, one chain of several): as the sequence (P26447 whole entry C81S, one chain of several) above, with S81A counted along it
Chain of wild-type human S100A4 (P26447 whole entry, one chain of several): as the sequence (P26447 whole entry C81S, one chain of several) above, with S81C counted along it
Chain of C3R/C86S S100A4 (P26447 whole entry C3R/C86S, one chain of several): as the sequence (P26447 whole entry C81S, one chain of several) above, with C3R, S81C, C86S counted along it

B1: FITC-Ahx-DAMNREVSSLKNKLRR-OH peptide (FITC-MIIA^1908−1923) (peptide)
peptide: DAMNREVSSLKNKLRR
HELM: PEPTIDE1{[O=C1OC2(c3ccc(O)cc3Oc3cc(O)ccc32)c2ccc(NC(=S)[*:2])cc21].[O=C(CCCCCN[*:1])[*:2]].D.A.M.N.R.E.V.S.S.L.K.N.K.L.R.R}$$$$V2.0
SMILES: CSCC[C@H](NC(=O)[C@H](C)NC(=O)[C@H](CC(=O)O)NC(=O)CCCCCNC(=S)Nc1ccc2c(c1)C(=O)OC21c2ccc(O)cc2Oc2cc(O)ccc21)C(=O)N[C@@H](CC(N)=O)C(=O)N[C@@H](CCCNC(=N)N)C(=O)N[C@@H](CCC(=O)O)C(=O)N[C@H](C(=O)N[C@@H](CO)C(=O)N[C@@H](CO)C(=O)N[C@@H](CC(C)C)C(=O)N[C@@H](CCCCN)C(=O)N[C@@H](CC(N)=O)C(=O)N[C@@H](CCCCN)C(=O)N[C@@H](CC(C)C)C(=O)N[C@@H](CCCNC(=N)N)C(=O)N[C@@H](CCCNC(=N)N)C(=O)O)C(C)C
C81A S100A4
  Kd: 46.6 ± 3.2 µM
C3R/C86S S100A4
  Kd: 1.4 ± 0.1 µM
wild-type human S100A4
  Kd: 2.3 ± 0.3 µM
C81S S100A4
  Kd: 128 ± 15.7 µM
